Reference: paper doi:10.1101/2020.07.16.20155853

Target: SARS-CoV-2 Cys-like protease (Mpro) (SARS-CoV-2 (Wuhan-Hu-1 strain))
Experiment: SEC

SARS-CoV-2 Cys-like protease (Mpro) (enzyme)
stoichiometry N: 2
